In patent US20170021005A1:

Molecular target: PltB pentamer (B subunit of typhoid toxin, as in the crystal structure) (Salmonella enterica serovar Typhi)
Assay: interface analysis of the crystal structure (computed)

PltA (subunit of typhoid toxin, as in the crystal structure) (enzyme)
buried surface: 1660 Å^2 | ΔiG (printed "ÅiG"): -17.7 kcal/mol
